# Measurements as given in article PMC8727025, “Src activates retrograde membrane traffic through phosphorylation of GBF1” (eLife, 2021).
# Columns and labels:
# [1] = target: T1, GFP-GBF1-Y898F immunoprecipitated from cells expressing active SrcEG (human, UniProt Q92538-1 1-1859, Y898F); assay: pull-down; in vitro Arf1 binding assay: NGFP-GBF1 (wild type or mutant) immunoprecipitated on GFP-trap agarose beads from cells expressing SrcKM or SrcEG, incubated with 10 µg recombinant Arf1-del17 protein for 1 hr at 4°C in the presence of GDP; washed three times with HKMT buffer (20 mM HEPES pH 7.4, 0.1 M KCl, 1 mM MgCl2, 0.5% Triton X-100); bound Arf1 by western blot; details: both partners purified
# T1 construct: GBF1, human, with Y898F; source: expressed in cells coexpressing active SrcEG, immunoprecipitated on GFP-trap agarose beads; not shown: GFP, N-terminal, kept
# [2] = target: T2, GFP-GBF1-Y876.898F double mutant immunoprecipitated from cells expressing active SrcEG (human, UniProt Q92538-1 1-1859, Y876F | Y898F); assay: as above; details: both partners purified
# T2 construct: GBF1, human, with Y876F and Y898F; source: expressed in cells coexpressing active SrcEG, immunoprecipitated on GFP-trap agarose beads; not shown: GFP, N-terminal, kept
# [3] = target: T3, GFP-GBF1-Y876F immunoprecipitated from cells expressing active SrcEG (human, UniProt Q92538-1 1-1859, Y876F); assay: as above; details: both partners purified
# T3 construct: GBF1, human, with Y876F; source: expressed in cells coexpressing active SrcEG, immunoprecipitated on GFP-trap agarose beads; not shown: GFP, N-terminal, kept
# [4] = target: T4, GFP-GBF1 (wild type) immunoprecipitated from cells expressing active SrcEG (tyrosine-phosphorylated GBF1) (human, UniProt Q92538-1 1-1859, phosphotyrosine at Y876 and Y898 and at eight other tyrosines (10 in all by mass spectrometry; positions 317, 377, 515 and five tyrosines in HDS2/3 are named)); assay: pull-down; in vitro Arf1 binding assay: NGFP-GBF1 immunoprecipitated on GFP-trap agarose beads from cells expressing SrcKM or SrcEG, incubated with 4 mg lysate of HEK293T cells expressing Arf1-V5 (pre-cleared) for 1 hr at 4°C in the presence of GDP; washed three times with HKMT buffer (20 mM HEPES pH 7.4, 0.1 M KCl, 1 mM MgCl2, 0.5% Triton X-100); bound Arf1 by immunoblot; details: one partner purified
# T4 construct: GBF1, human; residue numbers go with Homo sapiens NP_004184; Phosphorylated in cells by coexpressed SrcEG; also called phospho-GBF1; NGFP-GBF1; not shown: GFP, N-terminal, kept
# [5] = target: T4, GFP-GBF1 (wild type) immunoprecipitated …; assay: cell-based or functional assay
# T4 sequence (Q92538 other isoform, or with tags, fused parts or gaps): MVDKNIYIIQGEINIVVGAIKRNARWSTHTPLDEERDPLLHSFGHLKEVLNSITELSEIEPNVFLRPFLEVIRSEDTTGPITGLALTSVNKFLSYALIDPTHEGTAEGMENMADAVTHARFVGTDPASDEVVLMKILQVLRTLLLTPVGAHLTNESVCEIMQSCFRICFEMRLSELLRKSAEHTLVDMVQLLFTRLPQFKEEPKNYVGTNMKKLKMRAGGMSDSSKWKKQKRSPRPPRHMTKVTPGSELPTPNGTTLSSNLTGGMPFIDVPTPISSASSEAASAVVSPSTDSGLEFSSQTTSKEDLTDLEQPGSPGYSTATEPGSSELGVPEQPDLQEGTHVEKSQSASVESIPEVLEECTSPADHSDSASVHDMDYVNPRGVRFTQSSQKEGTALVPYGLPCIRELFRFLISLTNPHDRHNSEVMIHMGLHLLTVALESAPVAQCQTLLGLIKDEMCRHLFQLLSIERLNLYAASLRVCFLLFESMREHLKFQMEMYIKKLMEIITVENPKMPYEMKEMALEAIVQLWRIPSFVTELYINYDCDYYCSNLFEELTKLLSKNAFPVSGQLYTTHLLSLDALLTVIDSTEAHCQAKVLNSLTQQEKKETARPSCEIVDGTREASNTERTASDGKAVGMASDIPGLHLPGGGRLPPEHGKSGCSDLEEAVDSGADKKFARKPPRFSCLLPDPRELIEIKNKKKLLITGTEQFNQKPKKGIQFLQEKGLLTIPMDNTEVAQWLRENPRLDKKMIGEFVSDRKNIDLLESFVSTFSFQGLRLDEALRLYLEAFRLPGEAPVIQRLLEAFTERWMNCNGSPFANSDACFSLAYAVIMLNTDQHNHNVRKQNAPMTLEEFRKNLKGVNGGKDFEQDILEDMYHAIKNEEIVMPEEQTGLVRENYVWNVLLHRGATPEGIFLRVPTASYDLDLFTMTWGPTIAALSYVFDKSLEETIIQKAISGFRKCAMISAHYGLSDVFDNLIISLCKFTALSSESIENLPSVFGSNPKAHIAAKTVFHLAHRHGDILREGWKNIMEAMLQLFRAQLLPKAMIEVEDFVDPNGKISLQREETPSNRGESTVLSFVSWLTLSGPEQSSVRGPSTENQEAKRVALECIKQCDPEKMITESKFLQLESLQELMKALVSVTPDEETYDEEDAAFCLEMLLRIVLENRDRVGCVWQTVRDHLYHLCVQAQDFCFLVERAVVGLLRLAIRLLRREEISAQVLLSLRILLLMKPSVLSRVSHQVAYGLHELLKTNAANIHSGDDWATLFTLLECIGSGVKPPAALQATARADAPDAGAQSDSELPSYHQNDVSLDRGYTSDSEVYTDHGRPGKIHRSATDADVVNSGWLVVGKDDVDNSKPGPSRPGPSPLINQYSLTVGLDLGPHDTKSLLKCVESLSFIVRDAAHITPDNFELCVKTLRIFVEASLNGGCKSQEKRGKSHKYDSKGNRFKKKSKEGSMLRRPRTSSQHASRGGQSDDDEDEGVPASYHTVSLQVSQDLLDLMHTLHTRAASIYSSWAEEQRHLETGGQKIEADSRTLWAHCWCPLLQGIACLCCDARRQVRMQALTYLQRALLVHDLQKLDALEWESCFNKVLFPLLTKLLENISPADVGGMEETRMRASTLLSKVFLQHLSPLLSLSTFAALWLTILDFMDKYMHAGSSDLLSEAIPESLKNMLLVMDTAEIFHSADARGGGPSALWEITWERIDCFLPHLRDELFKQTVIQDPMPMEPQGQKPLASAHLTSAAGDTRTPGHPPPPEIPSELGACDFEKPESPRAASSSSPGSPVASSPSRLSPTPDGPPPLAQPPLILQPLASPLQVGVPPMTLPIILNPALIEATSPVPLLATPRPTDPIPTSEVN
# T1 sequence (Q92538 other isoform, or with tags, fused parts or gaps Y898F | Y898F | Y898F Y898F): as the sequence (Q92538 other isoform, or with tags, fused parts or gaps) above, with Y898F counted along it
# T2 sequence (Q92538 other isoform, or with tags, fused parts or gaps Y876F | Y898F | Y876F | Y898F | mutant): as the sequence (Q92538 other isoform, or with tags, fused parts or gaps) above, with Y876F, Y898F counted along it
# T3 sequence (Q92538 other isoform, or with tags, fused parts or gaps Y876F | Y876F | Y876F Y876F): as the sequence (Q92538 other isoform, or with tags, fused parts or gaps) above, with Y876F counted along it
percent reduction of bound Arf1 against wild-type GFP-GBF1 from SrcEG cells [1],percent reduction of bound Arf1 against wild-type GFP-GBF1 from SrcEG cells [2],percent reduction of bound Arf1 against wild-type GFP-GBF1 from SrcEG cells [3],fold increase in bound Arf1-V5 against GFP-GBF1 from SrcKM cells [4],"Arf1-GTP levels (GGA3 PBD bead pull-down of endogenous Arf1-GTP) in HEK-IS cells expressing GFP-GBF1, after imidazole activation of Src8A7F, 0 to 45 min, peak at 10 min [5]",Binder
60%,> 70%,40%,,,"Arf1-del17-His, recombinant Arf1 deleted of the first 17 amino acids (domain or fragment, Arf1 small GTPase deleted of the first 17 amino acids; The assay was done in the presence of GDP; also called Arf1-His; recombinant Arf1-del17 protein; source: bacterially produced and purified) not shown"
,,,2 fold,~3 fold,"C-terminal V5-tagged Arf1 (Arf1-V5) (natural protein, Arf1 small GTPase (ADP-ribosylation factor 1); The assay was done in the presence of GDP; source: HEK293T cells expressing Arf1-V5, in lysate (pre-cleared with agarose beads); not shown: V5, C-terminal, kept) not shown"
